Columns and labels:
[1] = molecular target: human desmin (assembled into filaments in vitro) (human) (UniProt P17661); experiment: low-speed sedimentation assay; desmin alone assembled at 22°C; 2,500 g, 10 min, 20°C; pellets only filaments associated with each other (filament-filament interactions); SDS-PAGE densitometry
[2] = molecular target: human desmin (assembled into filaments in vitro) (human) (UniProt P17661); experiment: low-speed sedimentation assay; desmin alone assembled at 37°C; 2,500 g, 10 min, 20°C; pellets only filaments associated with each other (filament-filament interactions); SDS-PAGE densitometry
[3] = molecular target: human desmin (assembled into filaments in vitro) (human) (UniProt P17661); experiment: low-speed sedimentation assay; desmin alone assembled at 44°C; 2,500 g, 10 min, 20°C; pellets only filaments associated with each other (filament-filament interactions); SDS-PAGE densitometry

- % of desmin in the low-speed pellet (filament-filament interactions) [1]: 24%
- % of desmin in the low-speed pellet (filament-filament interactions) [2]: 45%
- % of desmin in the low-speed pellet (filament-filament interactions) [3]: 61%
Substance: human desmin (assembled into filaments in vitro) (from UniProt P17661 1-470) (natural protein)

Source: PMC3212511
